The text below walks through data of paper PMC9938897, “CvkR is a MerR-type transcriptional repressor of class 2 type V-K CRISPR-associated transposase systems”.

In data set [1] the target is T1, CvkR (Alr3614) (Anabaena sp. PCC 7120, UniProt A0ACD6B984 19-168). Briefly: EMSA; EMSA: 10 mM Tris-HCl pH 8.0, 25 mM MgCl2, 50 mM NaCl, 1 mM DTT, 1 mM EDTA, 50 ug/mL poly(dI-dC), 0.01% NP-40, 10% glycerol, 2 nM probe, 25 C 30 min; footprinting: 50 mM Tris-HCl pH 8.0, 100 mM KCl, 2.5 mM MgCl2, 0.2 mM DTT, 10% glycerol, 2 ug salmon sperm DNA, RT. As to conditions: protein: recombinant; tags: 6xHis-SUMO removed by Ulp1 (BamHI site; possible vector residues at N-term); chain copies: 2; label: 5'-biotin; blunt.
T1 sequence (A0ACD6B984 entry or part of it): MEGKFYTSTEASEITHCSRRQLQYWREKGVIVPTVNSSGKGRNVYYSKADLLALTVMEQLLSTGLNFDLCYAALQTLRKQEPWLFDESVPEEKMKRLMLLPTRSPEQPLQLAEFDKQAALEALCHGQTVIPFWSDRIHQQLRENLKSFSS

For another data set, the target named is CvkR R42E (Anabaena sp. PCC 7120, UniProt A0ACD6B984 19-168, R60E). The data set is described as above. As to conditions: protein: recombinant; tags: 6xHis-SUMO removed by Ulp1; chain copies: 2; label: 5'-biotin; blunt.
CvkR R42E, sequence (A0ACD6B984 entry or part of it R60E | R42E R42E): as the sequence (A0ACD6B984 entry or part of it) above, with R42E counted along it
In the next data set the target is CvkRmut (Anabaena sp. PCC 7120, UniProt A0ACD6B984 19-168, R37A;R38A;Q41A;K58A;R60A;N84A). The description is as above. As to conditions: protein: recombinant; tags: 6xHis-SUMO removed by Ulp1; chain copies: 2; label: 5'-biotin; blunt.
CvkRmut, sequence (A0ACD6B984 entry or part of it R37A;R38A;Q41A;K58A;R60A;N84A): as the sequence (A0ACD6B984 entry or part of it) above, with R19A, R20A, Q23A, K40A, R42A, N66A counted along it
The target of data set [2] is T1, CvkR (Alr3614). Kind of data set: EMSA; no effect of mutation; EMSA: 10 mM Tris-HCl pH 8.0, 25 mM MgCl2, 50 mM NaCl, 1 mM DTT, 1 mM EDTA, 50 ug/mL poly(dI-dC), 0.01% NP-40, 10% glycerol, 2 nM probe, 25 C 30 min; footprinting: 50 mM Tris-HCl pH 8.0, 100 mM KCl, 2.5 mM MgCl2, 0.2 mM DTT, 10% glycerol, 2 ug salmon sperm DNA, RT. As to conditions: protein: recombinant; tags: 6xHis-SUMO removed by Ulp1 (BamHI site; possible vector residues at N-term); chain copies: 2; label: 5'-biotin; blunt. On the technique in general: Mobility shift assays separate free from complexed probe on a gel.

B1: PtnsBcenter (dsDNA)
DNA 1: TTTAGAATAACATTATGTATTTATAAATTACCTTTGTTTCA
DNA 2: TGAAACAAAGGTAATTTATAAATACATAATGTTATTCTAAA
As to B1, the binding result with CvkR (Alr3614) [1] is recorded as “binds”.

B2: P45 (dsDNA)
DNA 1: TAAGAAACATCCTATAGAAGCATCTTCTAAAACACATTAGTGCTTT
DNA 2: AAAGCACTAATGTGTTTTAGAAGATGCTTCTATAGGATGTTTCTTA
For the molecule B2, in the data set with CvkR (Alr3614) [1], the binding result is recorded as “no binding”.

B3: PtnsB (dsDNA)
DNA 1: AAAGGTTTTGTATATTTTCATAATGACAAATTGACTGTCGTTTTCTCCACGTTTAGAATAACATTATGTATTTATAAATT
DNA 2: AATTTATAAATACATAATGTTATTCTAAACGTGGAGAAAACGACAGTCAATTTGTCATTATGAAAATATACAAAACCTTT
As to B3, the binding result with CvkR (Alr3614) [1] was “binds”.

B4: Pwt (dsDNA)
DNA 1: TTGTATAACATTATGTGTTTTGTATGGTATTTT
DNA 2: AAAATACCATACAAAACACATAATGTTATACAA
B4: the values for the binding result with CvkR R42E, in the data set with CvkR (Alr3614) [1] and in the data set with CvkRmut were “no binding”, “binds” and “no binding”, respectively.

B5: P15-5 (dsDNA)
DNA 1: TTGTATAACATAATGTGTTTTGTATGGTATTTT
DNA 2: AAAATACCATACAAAACACATTATGTTATACAA
Regarding B5, the binding result in the data set with CvkR (Alr3614) [2] is listed as “binds”.

B6: PpsbAI (dsDNA)
DNA 1: GGAATAATTAACATTAAGAATTATTAATTCATGGGTTTTTAGTCTAGTAAATTTGCGTGAATTCATGTAAATTTTATGAG
DNA 2: CTCATAAAATTTACATGAATTCACGCAAATTTACTAGACTAAAAACCCATGAATTAATAATTCTTAATGTTAATTATTCC
For the molecule B6, the binding result in the data set with CvkR (Alr3614) [1] is given as “no binding”.

B7: Pcas12kcenter (dsDNA)
DNA 1: CTAAAACACATTAGTGCTTTGTATAACATTATGTGTTTTGTAT
DNA 2: ATACAAAACACATAATGTTATACAAAGCACTAATGTGTTTTAG
For the molecule B7, the binding result with CvkR (Alr3614) [1] was “binds”.

B8: P43 (dsDNA)
DNA 1: TGCTTTGTATAACATTATGTGTTTTGTATGGTATTTTATTTTT
DNA 2: AAAAATAAAATACCATACAAAACACATAATGTTATACAAAGCA
For the molecule B8, the binding result with CvkR (Alr3614) [1] was “binds”.

B9: Pcas12k (dsDNA)
DNA 1: AAGAAACATCCTATAGAAGCATCTTCTAAAACACATTAGTGCTTTGTATAACATTATGTGTTTTGTATGGTATTTTATTTTTA
DNA 2: TAAAAATAAAATACCATACAAAACACATAATGTTATACAAAGCACTAATGTGTTTTAGAAGATGCTTCTATAGGATGTTTCTT
In the case of B9, the binding result in the data set with CvkR (Alr3614) [1] is “binds”.

B10: Ptracr (dsDNA)
DNA 1: TTAGCCCTCTATGCTTATAGTCTCCGCCTAGCTAGGCGAAGTTGACAAACATCTGAACCTTGAAAATATAATATGTAATA
DNA 2: TATTACATATTATATTTTCAAGGTTCAGATGTTTGTCAACTTCGCCTAGCTAGGCGGAGACTATAAGCATAGAGGGCTAA
Regarding B10, the binding result with CvkR (Alr3614) [1] was “no binding”.
